Drawing on patent CN101875694A, this text covers 小鼠存活率, C57BL/6 given 1μg rhTNFα and D-galactosamine, 5μg antibody for 1 substance.

For the assay, the target named is 重组人肿瘤坏死因子TNFα (Recombinant Human TNF-α, Peprotech Asia, Cat 300-01A) (human) (UniProt P01375). Description: cell-based or functional assay.
Sequence of UniProt P01375 (P01375 77-233 limits assumed): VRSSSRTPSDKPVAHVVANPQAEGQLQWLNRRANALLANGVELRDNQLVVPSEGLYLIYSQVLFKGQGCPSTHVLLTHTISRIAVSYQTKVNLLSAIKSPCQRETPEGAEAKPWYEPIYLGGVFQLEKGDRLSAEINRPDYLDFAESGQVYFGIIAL

Turning to “野生型全长的D2E7抗体 (full-length wild-type D2E7) (antibody)”, the 小鼠存活率, C57BL/6 given 1μg rhTNFα and D-galactosamine, 5μg antibody was found to be 0%.
